Experimental data from EP1828247B1 (Crucell Holland B.V., dated 2011).

T1: recombinantly expressed purified soluble WNV E protein (strain 382-99), truncated form with Myc and His tags (West Nile virus strain 382-99, UniProt Q9Q6P4 291-696)
T1 construct: also called recombinant WNV-E protein; truncated E protein; not shown: Myc tag and His tag from pAdapt.myc.his
T1 sequence: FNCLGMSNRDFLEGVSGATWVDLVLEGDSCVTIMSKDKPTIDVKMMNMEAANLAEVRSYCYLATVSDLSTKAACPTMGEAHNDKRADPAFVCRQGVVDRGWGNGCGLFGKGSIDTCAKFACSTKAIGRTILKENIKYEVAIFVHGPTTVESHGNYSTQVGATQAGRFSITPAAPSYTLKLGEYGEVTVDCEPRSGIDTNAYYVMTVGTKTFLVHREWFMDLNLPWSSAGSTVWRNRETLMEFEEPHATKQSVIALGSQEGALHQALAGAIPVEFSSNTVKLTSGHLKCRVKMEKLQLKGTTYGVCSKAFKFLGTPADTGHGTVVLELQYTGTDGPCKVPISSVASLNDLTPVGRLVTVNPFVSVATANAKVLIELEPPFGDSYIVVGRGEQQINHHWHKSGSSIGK


Legend:
[1] = molecular target: T2, West Nile virus strain USA99b (strain 385-99), whole virus (West Nile virus strain 385-99 (USA99b)); assay: phage antibody ELISA on coated whole inactivated WNV
T2 construct: also called WN virus; WNV

[2] = molecular target: T1, recombinantly expressed purified …; assay: phage antibody ELISA on coated recombinant soluble WNV E protein
[3] = molecular target: T1, recombinantly expressed purified …; assay: as above; remark: listed apart in the source

Binder | OD 492nm [1] [OD 492nm] | OD 492nm [2] [OD 492nm] | binding result [3]
SC04-311 (scFv) scFv: EVQLVQSGGGVVQPGRSLRLSCVASGFTFSKDAMHWVRQAPGKGLEWVAVISYDGSDKHYADSVKGRVTISRDNSRKTLYLRMDSLRAEDTALYYCARGYNSGHYFDYWGQGTLITVSSGTGGSGGTGSGTGGSTQSVLTQPPSVSAAPGQKVTISCSGTSSNIGDNYVSWYQHLPGTAPKLLIYDNNKRPSGIPDRFSGSKSGTSATLGVTGLQTGDEADYYCGTWDSSLTAVVFGGGTKLTVLG | 1.04 |  | 
SC04-299 (scFv) scFv: EVQLVETGGGVVQPGRSLRLSCAASGFTFSGYAMHWVRQAPGKGLDWVAVISYDGSEKYSADSVKGRFTISRDNSKNTLYLQMNSLRAEDTAVYYCAKESGGPIWYKYYGVDVWGQGTTVTVSSGTGGSGGTGSGTGGSTSYVLTQPPSLSAAPRQRVTISCSGSSSNIGNYGVNWYQQLPGKAPKLLIYYDDLLPSGVSDRFSGSKSGTSASLAISGLQSEDEGDYYCAAWDDTLSAWVFGGGTKLTVLG | 1.07 | 0.072 | 
SC04-271 (scFv) scFv: EVQLVETGAEVKKPGESLRISCKGSGYTFNNYWIGWVRQMPGKGLEWMGIIYPGDSDTRYSPSVQGHVTISADKSINTAYLQWSSLKASDTAVYYCARRPGYDYGFYYFDYWGQGTLVTVSSGTGGSGGTGSGTGGSTQSALTQPRSVSGSPGQSVTISCTGTSSDVGGYNYVSWYQHHPGKAPKLMIYDVSNRPLGVSNRFSGSKSGNTASLTISGLQAEDEADYYCSSYTSSSTYVFGTGTHLTVLS | 0.984 | 0.608 | 
SC04-353 (scFv) scFv: EVQLVQSGGGVVQPGRSLRLSCAASGFTFSNYAMHWVRQAPGKGLEWVAVISYDGGNKYYADSVKGRFTMSRDNSKNTLYLQMNSLRAEDTAVYYCARDFWSGYSMVDSYYYYMDVWGKGTTVTVSSGTGGSGGTGSGTGGSTETTLTQSPGTLSLSPGERATLSCRASQSVSNTFLAWYQQKPGQAPRLLIYGASSRATGIPDRFSGSGSGTDFTLTISRLEPEDFAAYYCQQYGSSLTFGPGTKVDIKR |  | 0.099 | no binding
SC04-361 (scFv) scFv: EVQLVQSGAEVKKPGESLKISCKASGFSFSTYWIGWVRQMPGKGLEWMGIIYPADSDTRYSPSFQGQVTISADKSISTAYLQWSSLKASDTAMYYCARLRGPYYDFWNGYRETHDAFNVWGQGTMVTVSSGTGGSGGTGSGTGGSTDVVMTQSPDSLAVSLGERATINCKSSQNILDNSDNKNFLAWYQQKPGQPPKLLIYWASARESGVPDRFSGSGSGTDFTLTISSLQAEDVALYYCQQYYNTPITFGQGTRLEIKR |  | 0.076 | no binding
SC04-289 (scFv) scFv: QMQLVQSGAEVKKPGESLRISCKGSGYSFTSNWITWVRQMPGKGLEWMGRIDPSDSYTNYSPSFQGHVTISADKSISTAYLQWSSLKASDTAMYYCARDVVGVGASDYYYYMDVWGKGTTVTVSSGTGGSGGTGSGTGGSTEIVLTQSPGTLSLSPGETATLSCRTSQSVSSSYLGWYQQKPGQAPRLLIYGASIRATGIPARFSGSGSGTEFTLTIDSLQSEDFAVYYCQQYNNWPPITFGQGTRLEIKR | 0.759 |  | 
SC04-283 (scFv) scFv: EVQLVQSGAEVKKSGESLKISCKGSGYTFNTYWIGWVRQMPGKGLEWMGIIYPGDSDTIYSPSFQGQVTISADKSISTAYLQWSSLKASDSAMYYCARLTFRRGYSGSDSFLPPGDFDYWGQGTLVTVSSGTGGSGGTGSGTGGSTDIQMTQSPSTLSASVGDRVTITCRASQSISSWLAWYQQKPGKAPNLLIYAASSLQSGVPSRFSGSGSGTDFTLTISSLQPDDSATYYCQQYNTYPLTFGGGTKVEIKR | 1.21 | 0.074 | 
